Measured values reported in patent US20130108641A1 (Sanofi, published 2013).

T1: human GITR expressed on cells (human, UniProt Q9Y5U5 26-241)
T1 construct: whole, on cells; Used for HEK293 transfectants and for PHA-stimulated human PBMCs; also called hGITR; cell surface hGITR
T1 sequence (looked up): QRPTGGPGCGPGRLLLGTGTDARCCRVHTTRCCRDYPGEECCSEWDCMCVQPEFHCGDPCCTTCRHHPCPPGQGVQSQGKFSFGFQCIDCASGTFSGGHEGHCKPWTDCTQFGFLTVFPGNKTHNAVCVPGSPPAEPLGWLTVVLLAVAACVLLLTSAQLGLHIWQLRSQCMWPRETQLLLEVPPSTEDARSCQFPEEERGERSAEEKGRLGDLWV

T2: human GITR-Fc fusion protein (human, UniProt Q9Y5U5 26-162)
T2 construct: extracellular domain; also called hGITR-Fc; recombinant human GITR-Fc; not shown: Fc part
T2 sequence (looked up): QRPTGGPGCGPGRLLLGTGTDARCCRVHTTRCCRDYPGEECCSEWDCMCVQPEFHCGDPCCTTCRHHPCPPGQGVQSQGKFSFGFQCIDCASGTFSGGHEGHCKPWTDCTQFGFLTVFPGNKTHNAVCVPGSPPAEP


Tests used:
[1] = target: T3, cynomolgus monkey GITR-Fc (cynomolgus monkey); experiment: SPR; KD on cGITR-Fc over KD on hGITR-Fc
T3 construct: extracellular domain; also called cGITR-FC; cGITR
Method: (§1) The binding kinetics of several anti-GITR antibodies to recombinant human GITR (hGITR) and cynomolgus monkey GITR (cGITR) were determined by surface plasmon resonance assay using a BIAcore 2000 (BIAcore Inc., […].). Briefly, a CM5 BIAcore biosensor chip was docked into the instrument and activated with 250 μL of 1:1 NHS/EDC at room temperature. A rabbit anti-mouse Fc IgG1 mAb (BIAcore #BR-1005-14) (13.5 μg/mL in 0.05M acetate buffer, pH 5) was immobilized on the activated chips in Flow cell 1. The immobilization was carried out at a flow rate of 5 μL/min. The chip was then blocked by injection of 55 μL of ethanolamine-HCl, pH 8.5, followed by five washes with 50 mM NaOH, 1M NaCl. To measure the binding of anti-GITR mabs to the human GITR protein or cyno GITR protein, antibodies were used at 2 μg/mL in BIAcore running buffer (HBS-EP). Antigens (human GITR or cyno GITR) were injected from 3 to 1000 nM. Following completion of the injection phase, dissociation was monitored in a BIAcore running buffer at the same flow rate for 360 sec. The surface was regenerated between injections using 30 μL of 50 mM NaOH-1 M NaCl. Individual sensorgrams were analyzed using […].

[2] = target: T1, human GITR expressed on cells; experiment: FACS, Alexa488-labeled antibody on PHA-stimulated human PBMCs
Method: (§2) Specifically, human or cynomolgus monkey peripheral blood mononuclear cells were isloated and diluted to 2×10^6/ml in RPMI-1640 medium containing 10% FBS. The cells were then stimulated with 5 ug/ml phytohaemagglutinin (PHA) for 72 hours in 6 well plates. […] The cells were then washed 2 times with FACS stain buffer (Becton Dickinson) and then co-stained with 50 ul of CD4-APC for 20 minutes in the dark at 4° C. The cells were then washed again 2 times with FACS stain buffer before being resuspended in 150 μL of FACS stain buffer (Becton Dickinson) and analyzed using a FACS Calibur instrument. from which binding curves were generated. Equilibrium dissociation constants (KD) for each antibody were determined from the binding curves.

[3] = target: T2, human GITR-Fc fusion protein; experiment: SPR (BIAcore 2000), mAb captured on anti-mouse Fc, antigen injected
Method: as §1

[4] = target: T3, cynomolgus monkey GITR-Fc; experiment: as above
Method: as §1

[5] = target: T1, human GITR expressed on cells; experiment: Meso Scale assay, Sulfo-conjugated antibody on coated HEK293-Trex-hGITR cells
Method: The binding kinetics of anti-GITR antibodies to hGITR expressed on the surface of HEK293 cells were determined by Meso Scale assay. HEK293-Trex-hGITR cells (#2404) were coated at 25000 cells/well on a 96-well High Bind plate (MSD L15XB-3) for 2 hours at room temperature. Wells were washed 2 times with 150 μl/well of PBS and blocked with 150 μl/well of blocking solution for 30 min at room temperature. Following two washes with 150 μl/well of PBS, 25 μL/well of Sulfo-conjugated antibodies were added in 2-fold serial dilutions starting at 100 μg/ml up to 12 dilutions in assay diluent and incubated for 45 min at room temperature followed by two washes with PBS. The antibody binding was evaluated by adding 150 μl/well 1× Read buffer T without surfactant and read using the Mesoscale instrument.

[6] = target: T2, human GITR-Fc fusion protein; experiment: competition ELISA, GITRL coated, GITR-Fc 0.25 µg/mL pre-incubated with antibody
Method: The ability of anti-GITR antibodies to inhibit the binding of human GITRL to hGITR was assessed using a competition ELISA. Ninety-six well plates were coated with GITR-Ligand protein at 0.5 μg/well at 4° C., overnight. Wells were washed with washing buffer (PBS pH 7.4+0.05 Tween 20) and blocked with 200 μL of blocking buffer (PBS pH 7.4+0.05% Tween 20+1% BSA) for 1 hour at room temperature. Wells were then washed two times with washing buffer and exposed to 100 μL of pre-incubated mixtures of GITR-Fc at 0.25 μg/mL plus anti-GITR antibody in 2-fold serial dilutions starting at 10 μg/ml up to 12 dilutions for 1 hour at room temperature with agitation. Plates were washed four times with washing buffer and GITR-Ligand-bound recombinant human GITR-Fc was detected with the use of peroxidase-conjugated goat anti-human IgG-Fc (Sigma), followed by incubation with the TMB substrate (Interchim)
All antibodies generated using the methods disclosed herein were able to antagonize the binding of GITRL to GITR more potently than the prior art MAB689 antibody.

[7] = target: T1, human GITR expressed on cells; experiment: cell-based or functional assay
[8] = target: T4, cynomolgus monkey GITR on PBMCs (cynomolgus monkey); experiment: FACS, Alexa488-labeled antibody on PHA-stimulated cynomolgus monkey PBMCs
T4 construct: whole, on cells; also called cynoGITR-expressing PBMCs
Method: as §2

Row | Ratio cKD/hKD [1] | Kd [2] [nM] | Kd [3] [nM] | koff [3] [s⁻¹] | Kd [4] [nM] | koff [4] [s⁻¹] | Kd [5] [nM] | IC50 [6] [nM] | IC50 of dose-dependent inhibition of NFkB signal transduction (luciferase reporter) [7] [nM] | Kd [8] [nM] | Binder
1 | 1.3 | 4.13 | 2.57 | 0.00038 | 3.35 | 0.000345 | 0.857 | 1.02 | – | – | anti-GITR antibody clone 1718 (antibody, V domains shown, Murine hybridoma antibody; also called 1718-GITR2; 1718 GITR-2) VH: QVQVQQSGPELVKPGASVRISCKASDYTFTNYYIHWVRQRPGQGLEWLGWIYPGKGYTNYNEKFKGKATLTADKSSSTAYMQFSSLTSEDSAVYFCASGYGNYYFPYWGQGTLVTVSA VL: IQMTQSSSYLSVSLGGRVTITCKASDHIKNWLAWYQQKPGNVPRLLMSAATSLETGFPSRFSGSGSGKDFTLTITSLQTEDVATYYCQQYWSTPWTFGGGTKLEIK
2 | 2.3 | 0.476 | 0.99 | 0.000508 | 2.27 | 0.00123 | 0.35 | 0.96 | 0.15 | 0.353 | anti-GITR antibody clone 2155 (murine) (antibody, V domains shown, Murine hybridoma antibody) VH: EVKLVESGGGLVKPGGSLKLSCGASGFTISSYAMSWVRQSPEKRLEWVAIISTGGSTYYPDSVRGRFTISRDNARNSLYLQMSSLRSEDTAMYYCARVGGYYDSMDHWGQGTSVTVSS VL: not shown
3 | 5.3 | – | 1.84 | 7.44e-05 | 9.68 | 0.00021 | 5.38 | 3.76 | – | – | anti-GITR antibody clone 1649 (antibody, V domains shown, Murine hybridoma antibody; also called 1649-GITR2; 1649 GITR-2) VH: EVQLQQSGTVLAGPGTSVKMSCEASGYSFTTYWIHWIKQRPGQGLEWIGAIYPGNSDAGYNQKFKGKAKLTAVTSASTAYMELSSLTNEDSAVYYCTRSSTYPHFDYWGQGTTLTVSS VL: DILLTQSPAILSVSPGERVSFSCRASQSIGTSIHWYQQRTNDSPRLLIKYASESISGIPSRFSGSGSGTDFTLNINSVESEDIADYYCQQTNNWPLTFGAGTKLELK
